Data on 41 sequences can be found in the nanobody polyreactivity screen of Harvey et al. (2022).

This series can be described thus: yeast display, Sf9 membrane polyspecificity reagent, FACS + sequencing; frameworks hold sequencing errors. In outline:
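Galactose induction of a Saccharomyces cerevisiae BJ5465 synthetic nanobody display library ran 36–48 hours. The cells were then stained for 1 hour at 4 °C with 10% biotinylated, detergent-solubilized Sf9 membrane reagent, pulled down on streptavidin microbeads and FACS-sorted into low and high (top ~1%) gates on expression and reagent-binding fluorescence. Labels for polyreactivity follow the gate of origin.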
Take “QVQLVESGGGLVQAGGSLRLSCAASGSTFYYAMGWYRQAPGKEMELVASITFSTGSTYYADSVKGRFTISRDNAKNTVYLQMNSLKPEDTAVYYCATGVDTYSLTVEHDSWGQGTQVTVSS”: the “polyreactivity (PSR sort gate)” value is listed as “low polyreactivity”.
For “QVQLVESGGGLFQAGGSLSLSCAASGFIFYTNAMGWYRQAPGKERELVATITTSGGRTYYADSVKGRFTISRDNAKNTVFLQMNSLKPEDTAVDYCATRYVVIEYDYWGQGTQVTVSS”, the “polyreactivity (PSR sort gate)” value was “low polyreactivity”.
Take “QVQLEESGGSLVQAGGSLRLSCAASGRTFTVNDMGWYRQAPGKERELVADIRGSGVSTSYADSVKGRFTISRDNAKNTVYLQMNSLKPADTAVYYCATDPVKSGYQRYYYWGQGTHVTVSS”: the “polyreactivity (PSR sort gate)” value was “low polyreactivity”.
For the sequence “QVHLEESGGRLVQEGGSLRISCAASGSILRSYAMGWYRQAPGKERELVAVINRGTSTNYADSVKGRFTISRDNAKNTVYLQMNSVKPEDTAVYYCAVAVLPWQLDSESYAEYDYWGEGTQVTVSS”, the “polyreactivity (PSR sort gate)” value is “low polyreactivity”.
Then “QVQLVESGGGLVQAGGSLRLSCAASGSIFGGNAMGWYRQAPGKERELVAAITTGDGSTYYADSVKGRFTISRDNAKNTVYLQMNSLKPEDTAVYYCAADIVHDRFDYWGQGTQVTVSS”, with “low polyreactivity”.
In the case of “QVQLVESGGGLVQAGGSLRLSCAASGSIFRTNAMGWYRQAPGKERELVAAITGRGGSTYYADSVKGRFTISRNNAKNTVYLQMNSLKPEDTAVYDCAADTWYGYRYKYDYWGQGTQVTVSS”, the “polyreactivity (PSR sort gate)” value is given as “high polyreactivity”.
In the case of “QVQVVESGGGLVQAGGSLRLSCAASGRTFFRNAMGWYRQARGKERELVAAISKRGGSTRYADSVKGRFTISRDQAQNPDYLQMNSLKPEDTAVYYCAAASRLEYSHATLYYWGQGTQVTVSS”, the “polyreactivity (PSR sort gate)” value was “high polyreactivity”.
The value for “QVQLVESGGGLVQAGGSLRLSCAASGSIFITYAMGWYRQAPGKERELVAAIRDSGDRTYYADSVKGRFTISRDYAKNTVYLQMNSLKPEDTAVYYCNARWQEPLKYDYWGQGTQVTVSS” was “low polyreactivity”; that for “QVQLVESGGGLVQAGGSLRLSCAASGITFFPYAMGWYRQAPGKERELVASISDGGGTNYAASVKGRFTISRDNAKNTVYLQMNSLKPEDTAVYYCATDASTYAYYGGDYWGQGTQVTVSS” was “low polyreactivity”.
Then “QVQLVESGGGLVQAGGSLRLNCAASGSTFNRNAMGWYRQAPGKERELVATISSGGSTNYADSVKGRFTITRDNAKNTVYLLMISLYPEDTWVYYCAKRSLYRYYYWGQGSQVTVSS”, with “high polyreactivity”.
“QVQLVESGGGLVQAGGSLRLSCAASGRIFTRNAMGWYRQAPGKERELVAAISRSGGSTYYADSVKGRFTISRDNAKNTVYLQMNSLKPEDTAVYYCAKRGYDNYPFYYWGQGTQVTVSS”: the “polyreactivity (PSR sort gate)” value is reported as “high polyreactivity”.
The value for “QVQLVDSGGGLVQAGGSLRLSCAASGSTFKYYAMGWYRQAPGKERELVAAISGRGGRTYYADSVKGRFTISRDHAKNTVYLQMNSLKPEDTAVYYCNAPFLGAHHYGYEYWGQGTQVTVSS” was “high polyreactivity”.
For the sequence “QVQLVESGGGLVQAGGSLRLSCAASGYTFYRNAMGWYRQAPGKERELVAAIRDDGSTYYADSVKGRFTISRDNAKNTVYLQMNSLKPEDTAVYYCAAAIPRQYWFGISHRRYYYWGQGTQVTVSS”, the “polyreactivity (PSR sort gate)” value is listed as “low polyreactivity”.
For “QVQLVESGGGLVQAGGSLRLSCAASGSTFGWYVMGWYRQAPGTERELVASITGSGGSTYYADSVKGRFTISRDNAKNTVYLQMNSLKPVDSAVYYCGADTGWYDDWTHDYWGQGTQVTVSS”, the “polyreactivity (PSR sort gate)” value is “low polyreactivity”.
On to “QVQLVESGGGLVQAGGSLRLSCAASGRNFKPNVMGWYRQAPGKERELVAAISWSGGASTYYADSVKGRFTISRDNAKNTVYLQMNSLKREDTAVYYCNAAKRNRYDYWGQGTQVTVSS”, for which the “polyreactivity (PSR sort gate)” value was “low polyreactivity”.
Then “QLQLLESAVGLVQAGGSLRLSCASSGRIFTQNTMGWYRQAPAKESELVAAINYSGGRTNYADSVKGRFTISRDNAKNTVYLQMNSLKPEDTAVYYCAAGYRRATYGYWGQGTQVTVSS”, with “high polyreactivity”; and “QLQLVESGGGLVQAGGSLRLSCAASGSILYIKTMGWYRQAPGKERELVAAITYSGGSTYYADAVKGRFTISRDNAKNTVYLQMTSLKPEDTAVYYCAADGYYGGFNYWGQGTQVTVSS”, with “low polyreactivity”; and “QVQLVESGGGLVQAGGSLRLSCAASGRTFRPNAMGWYRQAPGKERELVASITRRGGTTYYADSVKGRFTISRDNAKNTVYLQMYSLKPEDSAVYYCNAPPGYSSTRNGYWGQGTQVTVSS”, with “high polyreactivity”.
Then “QVQLLESGGGLVQAGGSLRLSCASSGFTFGWYAMGWYRPAPGKERDLVAAISYSGGSTYYADSVKGRFTISRDNAKNTVYLQMNSLKPEDTAVYYCAAKARRPYSYHPYDYWGQGTQVTVSS”, with “high polyreactivity”; and “QVQLVESGGGLVQAGGSLRLSCAASGRIFRNYAMGWYRQAPGKERELVAAISSGGGSTYYADSVKGRFTISRDNAKNTVYLQMNSLKPEDTAVYYCNARYVYYGKFREYDYWGQGTQVTVSS”, with “high polyreactivity”.
In the case of “QVQLVESGGGLVQAGGSLRLSCAASGSIFGYYAKGWYRQAPGKERELVAAIDSGGGSTYYADSVRGRVTISRDNAKNTVYIQMNRLKPEDTAVYYCAAVSYSYPSLLYEYWGQGTQVTVSS”, the “polyreactivity (PSR sort gate)” value was “low polyreactivity”.
Then “QVQLVESGGGLVQAGGSLRLSCAASGSTFDAYAMGWYRQAPGKERELVAAITNAGSTNYADSVKGRFTISRDNAKNTVYLQMNSLKPEDTAVFYCAADVSRWLDYGYDYWGQGTQVTVSS”, with “low polyreactivity”; and “QVQLVESWGGLVQAGGSLRLSCAASGRIFWAYAMGWYRHAPGKERELVAGITFTGGRTYYADSVKGRFTISRDNAKNTVYLQMNSLKPEDTAVYYCAAAGLDVGRKDRDGYWGQGTQVTVSS”, with “low polyreactivity”; and “QVQLVESGGGLVQAGGSLRLSCAASGRIFEINAMGWYRQAPGKERELVAAITRSGGSTYYADSVKGRFTISRDNAKNTVYLQMNSLKPEDTAVYYCAARGRYWYSRYYSWGQGTQVTVSS”, with “high polyreactivity”.
The value for “QVQLVESAGGLVQAGGSLRLSCAASGRTFIQYAMGWYRQAPGKERELVAVIRWSGGRTYYADTVKGRFTISRDNAKNTVYLQMNSLKPEDTAVYYCAKRSGSTFDWGQGTQVTVSS” was “high polyreactivity”; that for “QVQLVESGGGLVQAGCRLRLSCAASGITFYSYAMGWYRQAPGKERELVAAITLTGGTTYYADSVKGRFTISRDNAKNTVYLQMNSLKPEDTAVSYCAAQYWWWSRFEYDSWGQGTQVTVSS” was “low polyreactivity”.
The value for “QVQLVESGGGLVQAGGSLRLSCAASGRIFSYYDMGWYRQAPGKERELVATIRWSTSSTYADSVKGRFTISRDNAKPTVYLQMNILKPEDTAVYYCNAQYSQVNGYDYWGQGTQVTVSS” was “low polyreactivity”; that for “QVQLVESGGGLVQAGGSLRLTCAASGSTYYSYAMGWYRQATGKERELVAAITSRGDRTYYADSVQGRFTISRDNAKNTVYLQMNSLKPEDTAVYYCAAEQSWQGYAYYYCGQGTQVTVSS” was “high polyreactivity”; that for “QVQLVESGGGLVQAGGSQRLSCAASGSIFLRYAMGWYRQAPGKERELVAAITSSGGSTYYADSVKGRFTISRDNAKNTVYLQMTSLKPEDTAVYYCNRYSYLFPYYWKYDYWGQGTQVTVSS” was “high polyreactivity”.
As for “QVQLVESGGGLVQAGGSLRLSCAASGRTFRRYAMGWYRQAPGKERELVAAISFGGRTYYADSVKGRFTISRDNAKNTVYLQMNSLKPEDTAVYYCAVRSYDQLIVPRDYWGQGTQVTVSS”, the “polyreactivity (PSR sort gate)” value was “high polyreactivity”.
“QVQHVESARGLVQAGGSLRLSCAASGRTFFSYAMGGYRQAPGKERELVAAITSGGTTYYADSVKGRFTISRDNAKNTVYLQMNSLKPEDTAVYYCAVLGLGQKRGRAFLFPYDYWGQGTQVTVSS”: the “polyreactivity (PSR sort gate)” value was “high polyreactivity”.
Take “QVQLVESGGGLVQAGGSLRLSCAASGSTFGPYAMGWYRQAPGKERELVAAISRRGTSTYYADSVKGRFTISRDNAKNTVYLQMISLKPEDTAVYYCAADRLLYGGGREYWGQGTQVTVSS”: the “polyreactivity (PSR sort gate)” value is reported as “high polyreactivity”.
As for “QVQLVESGGGLVQAGGSLRLTCAASGRIFIGNAMGWYRQAPGKERELVAAISSGGSTDYADSVKGRFTISRDNAKNTVYLQMNSLKPEDTAVYYCNADYEGYYDYGYWGQGTQVTVSS”, the “polyreactivity (PSR sort gate)” value was “low polyreactivity”.
Then “QFQLVESGGGLVQAGGSLRLSCAASGRTFYAYAMGWYRQAHGKARELVAAIRGRTYYADSVKGRFTISSDNAKNTVYLQMNSLKPEDTAVYYCAARWVPREKLMFYWGQGTQVTVSW”, with “high polyreactivity”; and “QVQLVESGGGLVQAGGSLRLSCAASGSTLYKYAMGWYRQSPGKERELVAAISWSGSSTYYADSVKGRFTISRDNAKNTVYLQMNSLKPVDTAVYYCAAYPRPYIGYTDVYVWYEFDYWGQGTQVTVSS”, with “low polyreactivity”.
The value for “QVQLVESGGGLVQAGGSLRLSCAASGFIFRRNAMGWYRQAPGKERELVAAISRSGGRTYYADSVKGRFTISRDNAKNTVYLQMNSLKPEDTAVYYCAAEYTDKYEYWGQGTQVTVSS” was “high polyreactivity”; that for “QVQLVESGGGLGQAGGSLRLSCAASGFTFYYNAMGWYRQAPGKERELVATIRGTGSTNYADSVKGRFTISRDNAKNTVYLQMNSLKTEDTAVYYCDAPVDYQGDYWGQGTQVTVSS” was “low polyreactivity”.
Then “QVQLVESGGGLVQAGGSLRLTCAASGSTFVRYAMGWYRQAPGKERELVATIRRVGSTNYADSVKGRFTISRDNAKNTVYLQMNSLKPEDTEVYYCAARSLRYGRGMYYWGQGTQVTVSS”, with “high polyreactivity”; and “KVQLVESGGGLVQAGGSLRLSCAASGIIFNLYAMGWSRQAPGKERELVAAITSSGTSTYYADSVKGRFTISRDNAKNTLYLQMNSLKPEDTAVYYCAADRGFYYFVEYDYWGQGTQVTVSS”, with “high polyreactivity”.
In the case of “QVQLVESGGGLVQAGGSLRLSCAASGSTIKTYATMGWYRQAPGKERELVSAITSGSSTNYADSVKGRFTISRDNAKNNVYLQMNSLKPEATAVYYCAADDYYNWYLGEPGDYWGQGTQVTVSS”, the “polyreactivity (PSR sort gate)” value is “low polyreactivity”.
The value for “QVQLVESGGGLVQAGGSLRLSCAASGSTFGSYAMGWYRQAPGKERELVAAITQIGGSTYYADSVKGRFTISRDKAKNTVYLQMNSLKPEDTAVYYCAARYRYPGYYYWGQGTQVTVSS” was “high polyreactivity”.
